Columns and labels:
[1] = Hydrolysis kinetics of POZ-lipid conjugates in rat plasma; type: in vitro ADME; settings: 50% rat plasma diluted in PBS, 37° C.
Description: (§1) These solutions were spiked into the PBS or rat or human plasma media and allowed to incubate at 37° C. Samples were removed from hydrolysis media at different time intervals and quenched by addition of chilled 0.2% formic acid in methanol. […] The POZ-lipid conjugates were detected by UV absorption at 210 nm, and its breakdown and degradation metabolites were detected followed by mass spectrometry.

[2] = Hydrolysis kinetics of POZ-lipid conjugates in human plasma; type: in vitro ADME; settings: for Half-Life 50% Human Plasma: 50% human plasma diluted in PBS, 37° C.; for rate of hydrolysis in plasma, ester versus ether linkages: compared with ether linkages (Compounds 17a, 17b and 17c)
Description: as §1

Substance | Half-Life 50% Rat Plasma [1] | Half-Life 50% Human Plasma [2] | rate of hydrolysis in plasma, ester versus ether linkages [2]
PEOZ 2K DMG-(triazole-2-propionate) [Compound 19b] | 1 h | 5 h | faster rate
PEOZ-(triazole-3-propionyl-DMG) 2K [Compound 19c] | <1 h | 7 h | faster rate
